Assay results published in the supplement of paper PMC9112550, “Optimization of the antimicrobial peptide Bac7 by deep mutational scanning” (BMC Biology, 2022).

System: Escherichia coli TOP10
Assay: shrunken log2 fold change of peptide-encoding DNA abundance (4.5 h post-induction vs induction); higher = less antimicrobial activity (less host growth inhibition)
Conditions: time post-induction: 4.5 h; library: site-saturation at positions 5, 18, 19, 20
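Also: peptides expressed intracellularly from a pBAD plasmid library in pooled LB shake-flask culture, induced with 0.3% L-arabinose, DNA abundance read by NGS, three biological replicates, DESeq2 with apeglm shrinkage.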

| Sequence | shrunken log2 fold change |
| --- | --- |
| RRIRFRPPRLPRPRPRPRWAPRP | 0.305 |
| RRIRFRPPRLPRPRPRPRWCPRP | 0.14 |
| RRIRFRPPRLPRPRPRPSACPRP | 0.0977 |
| RRIRFRPPRLPRPRPRPSCKPRP | -0.901 |
| RRIRFRPPRLPRPRPRPSCLPRP | -0.502 |
| RRIRFRPPRLPRPRPRPSCQPRP | -0.245 |
| RRIRFRPPRLPRPRPRPSCTPRP | -0.407 |
| RRIRFRPPRLPRPRPRPSDQPRP | -0.302 |
| RRIRFRPPRLPRPRPRPSDYPRP | -0.219 |
| RRIRFRPPRLPRPRPRPSENPRP | -0.458 |
| RRIRFRPPRLPRPRPRPSFEPRP | -0.532 |
| RRIRFRPPRLPRPRPRPSFFPRP | -0.0473 |
| RRIRFRPPRLPRPRPRPSFIPRP | -0.831 |
| RRIRFRPPRLPRPRPRPSFQPRP | -0.145 |
| RRIRFRPPRLPRPRPRPSGFPRP | -0.207 |
| RRIRFRPPRLPRPRPRPSGPPRP | 0.21 |
| RRIRFRPPRLPRPRPRPSHDPRP | -0.142 |
| RRIRFRPPRLPRPRPRPSKGPRP | -0.115 |
| RRIRFRPPRLPRPRPRPSMEPRP | -0.202 |
| RRIRFRPPRLPRPRPRPSPDPRP | -0.0261 |
| RRIRFRPPRLPRPRPRPSPQPRP | 0.0415 |
| RRIRFRPPRLPRPRPRPSQNPRP | -0.22 |
| RRIRFRPPRLPRPRPRPSRCPRP | -0.0633 |
| RRIRFRPPRLPRPRPRPSSDPRP | -0.286 |
| RRIRFRPPRLPRPRPRPSSGPRP | -0.0411 |

| Sequence | shrunken log2 fold change |
| --- | --- |
| RRIRFRPPRLPRPRPRPSTGPRP | -0.787 |
| RRIRFRPPRLPRPRPRPSVDPRP | -0.011 |
| RRIRFRPPRLPRPRPRPSYFPRP | -0.479 |
| RRIRFRPPRLPRPRPRPSYRPRP | -0.783 |
| RRIRFRPPRLPRPRPRPSYWPRP | -0.519 |
| RRIRFRPPRLPRPRPRPTAFPRP | 0.0899 |
| RRIRFRPPRLPRPRPRPTAKPRP | 0.444 |
| RRIRFRPPRLPRPRPRPTAMPRP | -0.105 |
| RRIRFRPPRLPRPRPRPTASPRP | 0.384 |
| RRIRFRPPRLPRPRPRPTAYPRP | -0.243 |
| RRIRFRPPRLPRPRPRPTCAPRP | 0.564 |
| RRIRFRPPRLPRPRPRPTCVPRP | -0.0732 |
| RRIRFRPPRLPRPRPRPTDQPRP | -0.0655 |
| RRIRFRPPRLPRPRPRPTDSPRP | -0.0233 |
| RRIRFRPPRLPRPRPRPTDTPRP | -0.263 |
| RRIRFRPPRLPRPRPRPTECPRP | -0.0986 |
| RRIRFRPPRLPRPRPRPTENPRP | -0.115 |
| RRIRFRPPRLPRPRPRPTFSPRP | -0.0425 |
| RRIRFRPPRLPRPRPRPTGLPRP | -0.118 |
| RRIRFRPPRLPRPRPRPTGRPRP | 0.131 |
| RRIRFRPPRLPRPRPRPTPPPRP | 0.797 |
| RRIRFRPPRLPRPRPRPTQQPRP | 0.312 |
| RRIRFRPPRLPRPRPRPTRSPRP | 0.189 |
| RRIRFRPPRLPRPRPRPTSKPRP | -0.191 |
| RRIRFRPPRLPRPRPRPTTPPRP | 0.352 |

| Sequence | shrunken log2 fold change |
| --- | --- |
| RRIRFRPPRLPRPRPRPTTQPRP | 0.376 |
| RRIRFRPPRLPRPRPRPTYRPRP | -8.67e-05 |
| RRIRFRPPRLPRPRPRPTYYPRP | -0.421 |
| RRIRFRPPRLPRPRPRPVAEPRP | 0.256 |
| RRIRFRPPRLPRPRPRPVALPRP | -0.128 |
| RRIRFRPPRLPRPRPRPVDGPRP | 0.148 |
| RRIRFRPPRLPRPRPRPVEEPRP | -0.177 |
| RRIRFRPPRLPRPRPRPVEQPRP | -0.0448 |
| RRIRFRPPRLPRPRPRPVFEPRP | -0.0387 |
| RRIRFRPPRLPRPRPRPVGAPRP | 0.472 |
| RRIRFRPPRLPRPRPRPVGIPRP | -0.135 |
| RRIRFRPPRLPRPRPRPVGQPRP | -0.0211 |
| RRIRFRPPRLPRPRPRPVHSPRP | -0.126 |
| RRIRFRPPRLPRPRPRPVIHPRP | -0.182 |
| RRIRFRPPRLPRPRPRPVLCPRP | -0.221 |
| RRIRFRPPRLPRPRPRPVLHPRP | -0.376 |
| RRIRFRPPRLPRPRPRPVLNPRP | -0.282 |
| RRIRFRPPRLPRPRPRPVLSPRP | -0.0531 |
| RRIRFRPPRLPRPRPRPVMWPRP | 0.0942 |
| RRIRFRPPRLPRPRPRPVNIPRP | -0.16 |
| RRIRFRPPRLPRPRPRPVNQPRP | -0.188 |
| RRIRFRPPRLPRPRPRPVQLPRP | -0.189 |
| RRIRFRPPRLPRPRPRPVRVPRP | 0.349 |
| RRIRFRPPRLPRPRPRPVSFPRP | -0.414 |
| RRIRFRPPRLPRPRPRPVSWPRP | 0.44 |

| Sequence | shrunken log2 fold change |
| --- | --- |
| RRIRFRPPRLPRPRPRPVTDPRP | 0.00378 |
| RRIRFRPPRLPRPRPRPVTSPRP | -0.0369 |
| RRIRFRPPRLPRPRPRPVVEPRP | 0.258 |
| RRIRFRPPRLPRPRPRPVVGPRP | 0.362 |
| RRIRFRPPRLPRPRPRPVVKPRP | -0.461 |
| RRIRFRPPRLPRPRPRPVVNPRP | -0.026 |
| RRIRFRPPRLPRPRPRPVWCPRP | -0.158 |
| RRIRFRPPRLPRPRPRPVWLPRP | -0.0732 |
| RRIRFRPPRLPRPRPRPVWVPRP | 0.0313 |
| RRIRFRPPRLPRPRPRPWEQPRP | -0.00193 |
| RRIRFRPPRLPRPRPRPWFFPRP | -0.393 |
| RRIRFRPPRLPRPRPRPWFQPRP | -0.285 |
| RRIRFRPPRLPRPRPRPWGAPRP | 0.0596 |
| RRIRFRPPRLPRPRPRPWINPRP | -0.0461 |
| RRIRFRPPRLPRPRPRPWISPRP | -0.456 |
| RRIRFRPPRLPRPRPRPWKMPRP | -0.211 |
| RRIRFRPPRLPRPRPRPWKYPRP | -0.411 |
| RRIRFRPPRLPRPRPRPWLEPRP | 0.0931 |
| RRIRFRPPRLPRPRPRPWLPPRP | -0.0149 |
| RRIRFRPPRLPRPRPRPWMLPRP | -0.277 |
| RRIRFRPPRLPRPRPRPWPPPRP | 1.11 |
| RRIRFRPPRLPRPRPRPWQGPRP | 0.00425 |
| RRIRFRPPRLPRPRPRPWRPPRP | 0.275 |
| RRIRFRPPRLPRPRPRPWRSPRP | -0.0939 |
| RRIRFRPPRLPRPRPRPWSQPRP | -0.0158 |

| Sequence | shrunken log2 fold change |
| --- | --- |
| RRIRFRPPRLPRPRPRPWSRPRP | -0.147 |
| RRIRFRPPRLPRPRPRPWWHPRP | -0.334 |
| RRIRFRPPRLPRPRPRPWWIPRP | -0.681 |
| RRIRFRPPRLPRPRPRPWWMPRP | -0.168 |
| RRIRFRPPRLPRPRPRPWWSPRP | -0.18 |
| RRIRFRPPRLPRPRPRPWWTPRP | 0.0245 |
| RRIRFRPPRLPRPRPRPYAMPRP | -0.686 |
| RRIRFRPPRLPRPRPRPYAVPRP | -0.419 |
| RRIRFRPPRLPRPRPRPYCHPRP | -0.687 |
| RRIRFRPPRLPRPRPRPYERPRP | -0.119 |
| RRIRFRPPRLPRPRPRPYFIPRP | -1.12 |
| RRIRFRPPRLPRPRPRPYIAPRP | -1.11 |
| RRIRFRPPRLPRPRPRPYILPRP | -1.31 |
| RRIRFRPPRLPRPRPRPYLCPRP | -0.477 |
| RRIRFRPPRLPRPRPRPYNKPRP | -0.955 |
| RRIRFRPPRLPRPRPRPYNVPRP | -0.138 |
| RRIRFRPPRLPRPRPRPYRAPRP | -0.353 |
| RRIRFRPPRLPRPRPRPYRMPRP | -0.571 |
| RRIRFRPPRLPRPRPRPYRTPRP | -0.165 |
| RRIRFRPPRLPRPRPRPYTEPRP | -0.631 |
| RRIRFRPPRLPRPRPRPYWNPRP | -0.388 |
| RRIRFRPPRLPRPRPRPYYIPRP | -0.794 |
| RRIRGRPPRLPRPRPRPAADPRP | 2.21 |
| RRIRGRPPRLPRPRPRPACPPRP | 0.46 |
| RRIRGRPPRLPRPRPRPACYPRP | 0.896 |

| Sequence | shrunken log2 fold change |
| --- | --- |
| RRIRGRPPRLPRPRPRPAECPRP | 0.196 |
| RRIRGRPPRLPRPRPRPAGDPRP | 1.11 |
| RRIRGRPPRLPRPRPRPAGMPRP | 0.737 |
| RRIRGRPPRLPRPRPRPAKSPRP | 0.492 |
| RRIRGRPPRLPRPRPRPALPPRP | 0.696 |
| RRIRGRPPRLPRPRPRPANMPRP | -0.139 |
| RRIRGRPPRLPRPRPRPAQNPRP | 0.81 |
| RRIRGRPPRLPRPRPRPAQQPRP | 0.57 |
| RRIRGRPPRLPRPRPRPAQSPRP | 0.723 |
| RRIRGRPPRLPRPRPRPARIPRP | 0.208 |
| RRIRGRPPRLPRPRPRPARPPRP | 0.63 |
| RRIRGRPPRLPRPRPRPAVEPRP | 1.21 |
| RRIRGRPPRLPRPRPRPAVIPRP | 0.232 |
| RRIRGRPPRLPRPRPRPAVKPRP | 0.0152 |
| RRIRGRPPRLPRPRPRPAWCPRP | 0.822 |
| RRIRGRPPRLPRPRPRPAWKPRP | 0.122 |
| RRIRGRPPRLPRPRPRPAWPPRP | 0.892 |
| RRIRGRPPRLPRPRPRPAWQPRP | 0.395 |
| RRIRGRPPRLPRPRPRPAWWPRP | 1.39 |
| RRIRGRPPRLPRPRPRPAYDPRP | 0.326 |
| RRIRGRPPRLPRPRPRPAYFPRP | 0.235 |
| RRIRGRPPRLPRPRPRPCAEPRP | 1.91 |
| RRIRGRPPRLPRPRPRPCCCPRP | 0.946 |
| RRIRGRPPRLPRPRPRPCDQPRP | -0.0239 |
| RRIRGRPPRLPRPRPRPCEGPRP | 0.364 |
